Experimental findings from PMC4840434, “The interactome of Streptococcus pneumoniae and its bacteriophages show highly specific patterns of interactions among bacteria and their phages” (Scientific Reports, 2016) are described below.

What all share (test): pull-down; LuMPIS: N-terminally MBP-tagged bait pulled down on amylose beads, N-terminally eGFP-luciferase-tagged prey detected by luciferase activity; both expressed in HEK cells, raw protein extracts; quadruplicates; LIR against MBP without ORF
For experiment [1], the target named is Dp-1 orf31, Hypothetical protein (LuMPIS construct) (phage Dp-1 of S. pneumoniae).
In experiment [2] the target is Dp-1 orf9, No similarity (LuMPIS construct) (phage Dp-1 of S. pneumoniae).
For experiment [3], the target named is Dp-1 orf44, Rho-like domain lipoprotein (LuMPIS construct) (phage Dp-1 of S. pneumoniae).
Experiment [4] deals with Dp-1 orf32, Hypothetical protein (LuMPIS construct) (phage Dp-1 of S. pneumoniae).
The target in experiment [5] is Dp-1 orf58, Holin (LuMPIS construct) (phage Dp-1 of S. pneumoniae).
Experiment [6] has as its target Cp-1 orf10, Connector protein (LuMPIS construct) (phage Cp-1 of S. pneumoniae).

On to “SP_1153, hypothetical protein (LuMPIS construct) (from UniProt A0A0H2UQ84 1-392) (natural protein)”, for which, in experiment [1], the LIR (luminescence intensity ratio against MBP alone) is 6.

Regarding “SP_1395, putative phosphate transport system regulatory protein PhoU (LuMPIS construct) (from UniProt A0A0H2UQU1 1-217) (natural protein)”, the LIR (luminescence intensity ratio against MBP alone) in experiment [2] turned out to be 23. Still for that read-out and setting: for “SP_1504, TPR domain protein (LuMPIS construct) (from UniProt A0A0H2UQR2 1-403) (natural protein)” the value was 19.

With “SP_1536, conserved hypothetical protein (LuMPIS construct) (from UniProt A0A0H2UQS7 1-249) (natural protein)”, the LIR (luminescence intensity ratio against MBP alone) in experiment [3] turned out to be 10. Turning to “SP_1575, conserved hypothetical protein (LuMPIS construct) (from UniProt A0A0H2UQU9 1-225) (natural protein)”, the LIR (luminescence intensity ratio against MBP alone) in experiment [3] amounted to 14. With “SP_1669, MutT/nudix family protein (LuMPIS construct) (from UniProt A0A0H2URA0 1-203) (natural protein)”, the LIR (luminescence intensity ratio against MBP alone) in experiment [4] stood at 10. Consider “SP_1725, sucrose operon repressor (LuMPIS construct) (natural protein)”, for which, in experiment [3], the LIR (luminescence intensity ratio against MBP alone) came out at 3.

For the molecule “SP_1731, conserved hypothetical protein (LuMPIS construct) (from UniProt A0A0H2UR87 1-252) (natural protein)”, the LIR (luminescence intensity ratio against MBP alone) in experiment [5] came to 3. For the molecule “SP_1751, putative transporter, CorA family (LuMPIS construct) (from UniProt A0A0H2UR86 1-302) (natural protein)”, the LIR (luminescence intensity ratio against MBP alone) in experiment [5] amounted to 5. Regarding “SP_1915, hypothetical protein (LuMPIS construct) (from UniProt A0A0H2URK9 1-149) (natural protein)”, the LIR (luminescence intensity ratio against MBP alone) in experiment [4] amounted to 5.

B1: SP_1354, ribosomal protein L7/L12 (LuMPIS construct) (natural protein)
chain: MALNIENIIAEIKEASILELNDLVKAIEEEFGVTAAAPVAVAAADAADAGAAKDSFDVELTSAGDKKVGVIKVVREITGLGLKEAKELVDGAPALVKEGVATAEAEEIKAKLEEAGASVTLK
Regarding B1, the LIR (luminescence intensity ratio against MBP alone) in experiment [6] was found to be 12.

B2: SP_1540, single-strand binding protein Ssb (LuMPIS construct) (natural protein)
chain: MINNVVLVGRMTRDAELRYTPSNVAVATFTLAVNRTFKSQNGEREADFINVVMWRQQAENLANWAKKGSLIGVTGRIQTRSYDNQQGQRVYVTEVVAENFQMLESRSVREGHTGGAYSAPTANYSAPTNSVPDFSRNENPFGATNPLDISDDDLPF
Turning to B2, in experiment [4], the LIR (luminescence intensity ratio against MBP alone) was 3.

B3: SP_0194, conserved hypothetical protein (LuMPIS construct) (natural protein)
chain: MSHDHNHDHEERELITLVDEQGNETLFEILLTIDGKEEFGKNYVLLVPVNAEEDEDGQVEIQAYSFIENEDGTEGELQPIPEDSEDEWNMIEEVFNSFMEE
In the case of B3, the LIR (luminescence intensity ratio against MBP alone) in experiment [4] is 5.

B4: SP_1881, glutamate racemase (LuMPIS construct) (natural protein)
chain: MDNRPIGFLDSGVGGLTVVRELMRQLPHEEIVYIGDSARAPYGPRPAEQIREYTWQLVNFLLTKDVKMIVIACNTATAVVWEEIKAQLDIPVLGVILPGASAAIKSSQGGKIGVIGTPMTVQSDIYRQKIHDLDPDLQVESLACPKFAPLVESGALSTSVTKKVVYETLRPLVGKVDSLILGCTHYPLLRPIIQNVMGPKVQLIDSGAECVRDISVLLNYFEINRGRDAGPLHHRFYTTASSQSFAQIGEEWLEKEIHVEHVEL
On to B4, for which, in experiment [6], the LIR (luminescence intensity ratio against MBP alone) was found to be 6.
